Results: article PMC7923638 (BMC Biotechnology, 2021)

How the values were obtained:
CsSDC = molecular target: T1, CsSDC (Camellia sinensis, UniProt A0A4S4DBB3); assay: decarboxylase activity with and without […] PLP, UPLC; assay type: biochemical; settings: 20 mM serine, 40 °C, pH 7.0
T1 construct: gene SerDC; about 75 kDa on SDS-PAGE

purified protein = substrate: C[C@H](N)C(=O)O; assay: purified protein; settings: 45 °C, pH 8.0, 100 mM potassium phosphate, 0.1 mM PLP, 5 mM DTT, 1 mM K2EDTA, 10% glycerol, 1-100 mM substrate

T1 sequence (A0A4S4DBB3 entry or part of it): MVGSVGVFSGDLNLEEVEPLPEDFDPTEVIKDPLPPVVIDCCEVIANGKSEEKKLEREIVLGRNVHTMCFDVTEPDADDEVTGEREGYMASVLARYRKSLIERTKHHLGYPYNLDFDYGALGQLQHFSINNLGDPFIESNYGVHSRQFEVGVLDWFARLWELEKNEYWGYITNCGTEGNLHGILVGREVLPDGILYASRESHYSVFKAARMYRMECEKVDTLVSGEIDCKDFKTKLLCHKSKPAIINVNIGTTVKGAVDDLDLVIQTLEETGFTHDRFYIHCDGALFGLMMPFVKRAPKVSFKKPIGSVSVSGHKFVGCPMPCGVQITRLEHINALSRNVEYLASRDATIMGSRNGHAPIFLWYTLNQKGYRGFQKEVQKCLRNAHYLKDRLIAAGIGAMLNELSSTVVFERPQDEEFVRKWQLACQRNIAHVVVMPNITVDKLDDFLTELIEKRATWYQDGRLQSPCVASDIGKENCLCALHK

Cc1ncc(COP(=O)(O)O)c(C=O)c1O [pyridoxal-5′-phosphate]
decarboxylase activity with and without 0.1 mM PLP, UPLC (CsSDC): activities of CsAlaDC and CsSDC are significantly dependent on the presence of PLP

B1: CsAlaDC (Camellia sinensis var. sinensis) (protein)
chain: MEGTVSVLSNVSKVELLSKCFDLITIPVEPLPPVVASNGVAGGETKNMKERDIVLGKNVHTTSLTITEPDVDDDSTSDMEAFMAGVLVRYRKTLIEKTKYHLGYPFNLDLDYGPLAELQHFAINNLGDPFIESNYGVHSRQFEVGVLDWFARLWEIEQKEYWGYITNGGTEGNLHGILIGREVFPDGIFYTSRESHYSIFKAARMYRMECVKVGTLINGEIDCADFKAKLLSNKDKPAIINLNIGTTVKGAVDDIDLVIQTLEECGFSHDRFYIHCDGALFGFMMPFLNRGPKITFKKPIGSVSVSGHKFMGCPTPCGVQITRLEHINALSRNVEYLASRDATITGSRNGHSPIILWYALNRKGFKGFQKEVQKCLRNAHYLKDRLREAGISAMLNELSSTVVFERPLDEEFVRRWQLACEGNMAHVIVMPNVTIEKLDEFLNELVQKRANWYNDGKAGPPCLAPDIGSENCDCDLHK
Km (purified protein): 33.25 mM | Vmax (purified protein): 3470 µmol/min/mg
